Data on 94 variants can be found in the supplement of paper PMC10567573.

To fix the notation:
B1: FAM98B (parent)
chain: QLDKNSEVYQEVQAMFDTLGIPKS
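Note: lentivirally expressed fusions sorted by FACS into six bins by GFP to DsRed ratio, PSI derived from sequencing read proportions per bin multiplied by bin number.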

In this data set the parent is B1. As to the kind of experiment: protein stability index of a GFP-peptide fusion (GPS, HEK-293T) (PSI 1-6); higher = more stable. Particulars: c terminus: a fixed tail appended.
In the case of QLDKNSEVYQEVQAMFDTLGAPKS [I21A], the protein stability index stood at 3.72.

Take QLDKNSEVYQEVQAMFDTLGPPKS [I21P]: the protein stability index came out at 3.6.

Take QLDKNSEVYQEVQAMFDTLGVPKS [I21V]: the protein stability index was 3.51.

Turning to QLDKNSEVYQEVQAMFDTLGEPKS [I21E], the protein stability index worked out at 4.21.

Turning to QLDKNSEVYQEVQAMFDTLGWPKS [I21W], the protein stability index came to 3.6.

Consider QLDKNSEVYQEVQAMFDTLGTPKS [I21T], for which the protein stability index is 3.69.

In the case of QLDKNSEVYQEVQAMFDTLGQPKS [I21Q], the protein stability index was 3.64.

For QLDKNSEVYQEVQAMFDTLGFPKS [I21F], the protein stability index came out at 3.3.

With QLDKNSEVYQEVQAMFDTLGHPKS [I21H], the protein stability index was 3.4.

For the variant QLDKNSEVYQEVQAMFDTLGYPKS [I21Y], the protein stability index is 3.

For the variant QLDKNSEVYQEVQAMFDTLGKPKS [I21K], the protein stability index was determined as 3.58.

Turning to QLDKNSEVYQEVQAMFDTLGMPKS [I21M], the protein stability index stood at 3.27.

On to QLDKNSEVYQEVQAMFDTLGSPKS [I21S], for which the protein stability index was determined as 3.34.

As to QLDKNSEVYQEVQAMFDTLGLPKS [I21L], the protein stability index stood at 4.

On to QLDKNSEVYQEVQAMFDTLGDPKS [I21D], for which the protein stability index turned out to be 3.8.

For the variant QLDKNSEVYQEVQAMFDTLGGPKS [I21G], the protein stability index came out at 3.69.

On to QLDKNSEVYQEVQAMFDTLGRPKS [I21R], for which the protein stability index was found to be 2.76.

As for QLDKNSEVYQEVQAMFDTLGCPKS [I21C], the protein stability index is 3.53.

Take QLDKNSEVYQEVQAMFDTLGNPKS [I21N]: the protein stability index came to 3.41.

In the case of QLDKNSEVYQEVQAMFDTLGIPMS [K23M], the protein stability index was 3.38.

Consider QLDKNSEVYQEVQAMFDTLGIPIS [K23I], for which the protein stability index is 2.15.

With QLDKNSEVYQEVQAMFDTLGIPCS [K23C], the protein stability index was determined as 3.06.

As to QLDKNSEVYQEVQAMFDTLGIPNS [K23N], the protein stability index amounted to 3.54.

Regarding QLDKNSEVYQEVQAMFDTLGIPES [K23E], the protein stability index is 4.21.

As for QLDKNSEVYQEVQAMFDTLGIPGS [K23G], the protein stability index worked out at 3.17.

For the variant QLDKNSEVYQEVQAMFDTLGIPLS [K23L], the protein stability index was determined as 2.46.

As to QLDKNSEVYQEVQAMFDTLGIPAS [K23A], the protein stability index came out at 3.26.

Take QLDKNSEVYQEVQAMFDTLGIPDS [K23D]: the protein stability index amounted to 3.82.

QLDKNSEVYQEVQAMFDTLGIPHS [K23H]: the protein stability index turned out to be 3.33.

For the variant QLDKNSEVYQEVQAMFDTLGIPFS [K23F], the protein stability index was determined as 2.59.

With QLDKNSEVYQEVQAMFDTLGIPPS [K23P], the protein stability index was determined as 3.47.

As for QLDKNSEVYQEVQAMFDTLGIHKS [P22H], the protein stability index was found to be 2.87.

QLDKNSEVYQEVQAMFDTLGIEKS [P22E]: the protein stability index worked out at 4.15.

For QLDKNSEVYQEVQAMFDTLGIAKS [P22A], the protein stability index came to 3.48.

Turning to QLDKNSEVYQEVQAMFDTLGITKS [P22T], the protein stability index came to 3.48.

In the case of QLDKNSEVYQEVQAMFDTLGIKKS [P22K], the protein stability index was found to be 3.38.

As for QLDKNSEVYQEVQAMFDTLGIWKS [P22W], the protein stability index amounted to 2.98.

As for QLDKNSEVYQEVQAMFDTLGIFKS [P22F], the protein stability index amounted to 2.12.

With QLDKNSEVYQEVQAMFDTLGIQKS [P22Q], the protein stability index is 2.62.

On to QLDKNSEVYQEVQAMFDTLGICKS [P22C], for which the protein stability index was determined as 3.11.

For the variant QLDKNSEVYQEVQAMFDTLGINKS [P22N], the protein stability index is 3.38.

For QLDKNSEVYQEVQAMFDTLGIVKS [P22V], the protein stability index is 3.16.

On to QLDKNSEVYQEVQAMFDTLGIDKS [P22D], for which the protein stability index amounted to 4.05.

For QLDKNSEVYQEVQAMFDTLGIGKS [P22G], the protein stability index amounted to 2.53.

For QLDKNSEVYQEVQAMFDTLGIIKS [P22I], the protein stability index came to 2.78.

On to QLDKNSEVYQEVQAMFDTLGILKS [P22L], for which the protein stability index was determined as 2.03.

Take QLDKNSEVYQEVQAMFDTLGIRKS [P22R]: the protein stability index is 4.78.

Turning to QLDKNSEVYQEVQAMFDTLGIYKS [P22Y], the protein stability index came to 2.54.

As for QLDKNSEVYQEVQAMFDTLGISKS [P22S], the protein stability index was determined as 4.04.

In the case of QLDKNSEVYQEVQAMFDTLGIMKS [P22M], the protein stability index was 3.37.

Consider QLDKNSEVYQEVQAMFDTEGIPKS [L19E], for which the protein stability index was determined as 3.58.

As for QLDKNSEVYQEVQAMFDTVGIPKS [L19V], the protein stability index stood at 3.56.

As to QLDKNSEVYQEVQAMFDTTGIPKS [L19T], the protein stability index is 3.59.

Consider QLDKNSEVYQEVQAMFDTWGIPKS [L19W], for which the protein stability index came out at 2.45.

As for QLDKNSEVYQEVQAMFDTQGIPKS [L19Q], the protein stability index is 3.76.

As for QLDKNSEVYQEVQAMFDTPGIPKS [L19P], the protein stability index was determined as 3.17.

In the case of QLDKNSEVYQEVQAMFDTSGIPKS [L19S], the protein stability index stood at 3.46.

Consider QLDKNSEVYQEVQAMFDTDGIPKS [L19D], for which the protein stability index is 2.85.

For QLDKNSEVYQEVQAMFDTYGIPKS [L19Y], the protein stability index turned out to be 3.6.

In the case of QLDKNSEVYQEVQAMFDTGGIPKS [L19G], the protein stability index turned out to be 3.49.

With QLDKNSEVYQEVQAMFDTKGIPKS [L19K], the protein stability index is 3.32.

Take QLDKNSEVYQEVQAMFDTCGIPKS [L19C]: the protein stability index was found to be 3.69.

Take QLDKNSEVYQEVQAMFDTHGIPKS [L19H]: the protein stability index worked out at 3.71.

For the variant QLDKNSEVYQEVQAMFDTMGIPKS [L19M], the protein stability index was 3.15.

Turning to QLDKNSEVYQEVQAMFDTNGIPKS [L19N], the protein stability index was 3.38.

For QLDKNSEVYQEVQAMFDTRGIPKS [L19R], the protein stability index was 3.7.

In the case of QLDKNSEVYQEVQAMFDTFGIPKS [L19F], the protein stability index amounted to 2.85.

Regarding QLDKNSEVYQEVQAMFDTAGIPKS [L19A], the protein stability index worked out at 3.64.

For QLDKNSEVYQEVQAMFDTIGIPKS [L19I], the protein stability index came out at 3.06.

With QLDKNSEVYQEVQAMFDWLGIPKS [T18W], the protein stability index is 2.02.

For QLDKNSEVYQEVQAMFDQLGIPKS [T18Q], the protein stability index came to 3.24.

Turning to QLDKNSEVYQEVQAMFDRLGIPKS [T18R], the protein stability index came out at 3.33.

Take QLDKNSEVYQEVQAMFDSLGIPKS [T18S]: the protein stability index is 2.85.

Take QLDKNSEVYQEVQAMFDYLGIPKS [T18Y]: the protein stability index was 2.67.

QLDKNSEVYQEVQAMFDVLGIPKS [T18V]: the protein stability index is 2.57.

In the case of QLDKNSEVYQEVQAMFDTLQIPKS [G20Q], the protein stability index is 2.98.

As to QLDKNSEVYQEVQAMFDTLHIPKS [G20H], the protein stability index amounted to 2.55.

Take QLDKNSEVYQEVQAMFDTLEIPKS [G20E]: the protein stability index worked out at 3.77.

For the variant QLDKNSEVYQEVQAMFDTLPIPKS [G20P], the protein stability index stood at 3.01.

Take QLDKNSEVYQEVQAMFDTLIIPKS [G20I]: the protein stability index was found to be 3.21.

On to QLDKNSEVYQEVQAMFDTLLIPKS [G20L], for which the protein stability index came out at 3.2.

As for QLDKNSEVYQEVQAMFDTLKIPKS [G20K], the protein stability index was determined as 3.62.

With QLDKNSEVYQEVQAMFDTLRIPKS [G20R], the protein stability index worked out at 2.44.

Consider QLDKNSEVYQEVQAMFDTLYIPKS [G20Y], for which the protein stability index came to 3.02.

For QLDKNSEVYQEVQAMFDTLMIPKS [G20M], the protein stability index was 2.5.

Consider QLDKNSEVYQEVQAMFDTLTIPKS [G20T], for which the protein stability index turned out to be 3.15.

QLDKNSEVYQEVQAMFDTLWIPKS [G20W]: the protein stability index was found to be 3.

As for QLDKNSEVYQEVQAMFDTLNIPKS [G20N], the protein stability index was determined as 3.97.

For the variant QLDKNSEVYQEVQAMFDTLFIPKS [G20F], the protein stability index is 3.04.

With QLDKNSEVYQEVQAMFDTLCIPKS [G20C], the protein stability index was found to be 2.63.

As for QLDKNSEVYQEVQAMFDTLSIPKS [G20S], the protein stability index was 3.75.

Take QLDKNSEVYQEVQAMFDTLDIPKS [G20D]: the protein stability index came out at 3.74.

For the variant QLDKNSEVYQEVQAMFDTLAIPKS [G20A], the protein stability index was 3.04.

For QLDKNSEVYQEVQAMFDTLVIPKS [G20V], the protein stability index is 2.86.
